# Measured values as given in the RNAGym collection of RNA variant scans (doi:10.7554/elife.80360).
# B1: CPEB3 Ribozyme (parent)
# chain: GGGGGCCACAGCAGAAGCGUUCACGUCGCGGCCCCUGUCAGAUUCUGGUGAAUCUGCGAAUUCUGCUGU
# Variants of: B1
# Experiment: self-cleavage, relative activity (ratio to wild type); higher = more cleavage; co-transcriptional
row,Variant,self-cleavage
1,GGGGCACACAGCAGAAGCGUUCACGUCGCGGCCCCUGUCAGAUUCUGGUGAAUCUGCGAAUUCUGCUGU [G5C C6A],0.0948
2,GGGGCUCACAGCAGAAGCGUUCACGUCGCGGCCCCUGUCAGAUUCUGGUGAAUCUGCGAAUUCUGCUGU [G5C C6U],0.158
3,GGGGCCCACUGCAGAAGCGUUCACGUCGCGGCCCCUGUCAGAUUCUGGUGAAUCUGCGAAUUCUGCUGU [G5C A10U],0.341
4,GGGGCCUACAGCAGAAGCGUUCACGUCGCGGCCCCUGUCAGAUUCUGGUGAAUCUGCGAAUUCUGCUGU [G5C C7U],0.156
5,GGGGACCACAGCAGAAGCGUUCACGUCGCGGCCCCUGUCAGAUUCUGUUGAAUCUGCGAAUUCUGCUGU [G5A G48U],0.939
6,GGGGACCACAGCAGAAGCGAUCACGUCGCGGCCCCUGUCAGAUUCUGGUGAAUCUGCGAAUUCUGCUGU [G5A U20A],0.0737
7,GGGGACCACAGCAGAAGCGUUCACGUCGCGGCCCCUGUCAGAUUCUGGUUAAUCUGCGAAUUCUGCUGU [G5A G50U],0.906
8,GGGGCCCACAGGAGAAGCGUUCACGUCGCGGCCCCUGUCAGAUUCUGGUGAAUCUGCGAAUUCUGCUGU [G5C C12G],0.141
9,GGGGCCCACAGCAGAAGCGUUCACGUCGCGGCCCCUGUCAGGUUCUGGUGAAUCUGCGAAUUCUGCUGU [G5C A42G],0.282
10,GGGGCCCACAGCUGAAGCGUUCACGUCGCGGCCCCUGUCAGAUUCUGGUGAAUCUGCGAAUUCUGCUGU [G5C A13U],0.172
11,GGGGCCCACAGCGGAAGCGUUCACGUCGCGGCCCCUGUCAGAUUCUGGUGAAUCUGCGAAUUCUGCUGU [G5C A13G],0.273
12,GGGGCCCACAGCCGAAGCGUUCACGUCGCGGCCCCUGUCAGAUUCUGGUGAAUCUGCGAAUUCUGCUGU [G5C A13C],0.17
13,GGGGACCACAGCAGAAGCGUUCACGUCGCGGCCCCUGUCAGAUUCUGGCGAAUCUGCGAAUUCUGCUGU [G5A U49C],0.969
14,GGGGACCACAGCAGAAGCGUUCACGUCGCGGCCCCUGUCAGAUUCUGGGGAAUCUGCGAAUUCUGCUGU [G5A U49G],0.781
15,GGGGCCCACAGCAGAAGCGUUCACGUCGCGGCCCCUGUCAGAUUCUGGUGAAUCUGCGACUUCUGCUGU [G5C A60C],0.171
16,GGGGCCCACAGCAGAAGCGUUCACGUCGCGGCCCCUGUCAGAUUCUGGUGAAUCUGCGAUUUCUGCUGU [G5C A60U],0.164
17,GGGGCCCACAGCAGAAGCGUUCACGUCGCGGCCCCUGUCAGAUUCUGGUGAAUCUGCGAGUUCUGCUGU [G5C A60G],0.215
18,GGGGACCACAGCAGAAGCGUUCACGUCGCGGCCCCCGUCAGAUUCUGGUGAAUCUGCGAAUUCUGCUGU [G5A U36C],0.831
19,GGGGACCACAGCAGAAGCGUUCACGUCGCGGCCCCGGUCAGAUUCUGGUGAAUCUGCGAAUUCUGCUGU [G5A U36G],0.521
20,GGGGCCCACAGCAGAAGCGUUCACGUCGCGGCCCCUGUCUGAUUCUGGUGAAUCUGCGAAUUCUGCUGU [G5C A40U],0.134

row,Variant,self-cleavage
1,GGGGCCCACAGCAGAAGCGUUCACGUCGCGGCCCCUGUCAGAUUCUGGUGAAUCUGCGAAUUCUGCUGU [G5C],0.24
2,GGGGACCACAGCAGAAGCGUUCACGUCGCGGCCCCUGUCAGAUUCUGGUGAAUCUGCGAAUACUGCUGU [G5A U62A],0.492
3,GGGGACCACAGCAGAAGCGUUCACGUCGCGGCCCCUGUCAGAUUCUGGUGAAUCUGCGAAUGCUGCUGU [G5A U62G],0.447
4,GGGGACCACAGCAGAAGCGUUCACGUCGCGGCCCCUGUCAGAUUCUGGUGAAUCGGCGAAUUCUGCUGU [G5A U55G],0.433
5,GGGGACCACAGCAGAAGCGUUCACGUCGCGGCCCCUGUCAGAUUCUGGUGAAACUGCGAAUUCUGCUGU [G5A U53A],0.74
6,GGGGACCACAGCAGAAGCGUUCACGUCGCGGCCCCUGUCAGAUUCUGGUGAACCUGCGAAUUCUGCUGU [G5A U53C],0.584
7,GGGGACCACAGCAGAAGCGUUCACGUCGCGGCCCCUGUCAGAUUCUGGUGAAUCUGCGAAUUCUGCAGU [G5A U67A],0.953
8,GGGGACCACAGCAGAAGCGUGCACGUCGCGGCCCCUGUCAGAUUCUGGUGAAUCUGCGAAUUCUGCUGU [G5A U21G],0.161
9,GGGGACCACAGCAGAAGCGUUCACGUCGCGGCCCCUGUCAGAUUCUGGUGAAUCUGCGAAUUCUUCUGU [G5A G65U],0.513
10,GGGGCCCACAGCAGAAGCGUUCACGUCGCGGCCCCUGUCAGAUUCUGGUGAAUCUGCGUAUUCUGCUGU [G5C A59U],0.14
11,GGGGCCCACAGCAGAAGCGUUCACGUCGCGGCCCCUGUCAGAUUCUGGUGAAUCUGCGCAUUCUGCUGU [G5C A59C],0.135
12,GGGGACCACAGCAGAAGCGUUCACGUCGCGGCCCCUGUCAGAUUCAGGUGAAUCUGCGAAUUCUGCUGU [G5A U46A],0.907
13,GGGGACCACAGCAGAAGCGUUCACGUCGCGGCCCCUGUCAGAUUCGGGUGAAUCUGCGAAUUCUGCUGU [G5A U46G],0.925
14,GGGGCCCACAGCAGAGGCGUUCACGUCGCGGCCCCUGUCAGAUUCUGGUGAAUCUGCGAAUUCUGCUGU [G5C A16G],0.205
15,GGGGCCCACAGCAGAUGCGUUCACGUCGCGGCCCCUGUCAGAUUCUGGUGAAUCUGCGAAUUCUGCUGU [G5C A16U],0.169
16,GGGGCCCACAGCAGACGCGUUCACGUCGCGGCCCCUGUCAGAUUCUGGUGAAUCUGCGAAUUCUGCUGU [G5C A16C],0.0946
17,GGGGCCCACAGCAGGAGCGUUCACGUCGCGGCCCCUGUCAGAUUCUGGUGAAUCUGCGAAUUCUGCUGU [G5C A15G],0.3
18,GGGGCCCACAGCAGCAGCGUUCACGUCGCGGCCCCUGUCAGAUUCUGGUGAAUCUGCGAAUUCUGCUGU [G5C A15C],0.113
19,GGGGCCCACAGCAGUAGCGUUCACGUCGCGGCCCCUGUCAGAUUCUGGUGAAUCUGCGAAUUCUGCUGU [G5C A15U],0.15
